Results from patent US20240158510A1 (GOVERNING COUNCIL OF THE UNIVERSITY OF TORONTO, published 2024).

Columns and labels:
[1] = target: T1, integrin αvβ1 expressed on CHO cells (UniProt P06756 31-1048; P05556 21-798, limits assumed); experiment: cell-based or functional assay
[2] = target: integrin αvβ3 expressed on CHO cells (UniProt P06756 31-1048; P05106 27-788, limits assumed); experiment: cell-based or functional assay
[3] = target: T1, integrin αvβ1 expressed on CHO cells; experiment: cell-based or functional assay; remark: listed apart in the source
[4] = target: integrin αvβ8 expressed on CHO cells (UniProt P06756 31-1048; P26012 43-769, limits assumed); experiment: cell-based or functional assay
[5] = target: integrin αvβ5 expressed on CHO cells (UniProt P06756 31-1048; P18084 24-799, limits assumed); experiment: cell-based or functional assay
[6] = target: T1, integrin αvβ1 expressed on CHO cells; experiment: flow cytometry titration on integrin-αvβ1 CHO cells; binder taken from the context of FIG. 10 and Example 2
Protocol: Adherent cells were brought into suspension using PBS supplemented with 10 mM ethylenediaminetetraacetic acid (EDTA). The cells were washed with PBS, resuspended in PBS supplemented with 1% BSA, and incubated for 15 minutes at 4° C. The cells were labelled with 50 μl of Fab-phage culture supernatant, or 500 nM Fab, or IgG for 30 minutes at 4° C., then washed with PBS and resuspended in PBS supplemented with 1% BSA. Next, the cells were labelled with anti-Fab (for Fab-phage), or anti-Flag (for Fabs) or anti-Fc (for IgGs) conjugated Alexa-488 secondary Ab according to manufacturer's instructions. Data were collected using a CytoFLEX-S flow-cytometer using a 488-nm laser with 530/25 nm filter settings. The cells were analyzed in PBS, and all acquired live events were greater than 10,000 cells per sample. Quantitation analysis was carried out using FlowJo v10.2 Software. For Ab cellular titration analysis, the Abs were added to antigen positive cells in duplicate samples from a range of 500 pM to 1 μM. The mean fluorescence signal values were subtracted from the control antigen negative cells signals, and EC50 determined using Graph-pad Prism, where x is the Fab concentration: […]

[7] = target: T1, integrin αvβ1 expressed on CHO cells; experiment: cell-based or functional assay; remark: listed apart in the source

T1 sequence (P06756 31-1048 limits assumed, chain 1 of 2): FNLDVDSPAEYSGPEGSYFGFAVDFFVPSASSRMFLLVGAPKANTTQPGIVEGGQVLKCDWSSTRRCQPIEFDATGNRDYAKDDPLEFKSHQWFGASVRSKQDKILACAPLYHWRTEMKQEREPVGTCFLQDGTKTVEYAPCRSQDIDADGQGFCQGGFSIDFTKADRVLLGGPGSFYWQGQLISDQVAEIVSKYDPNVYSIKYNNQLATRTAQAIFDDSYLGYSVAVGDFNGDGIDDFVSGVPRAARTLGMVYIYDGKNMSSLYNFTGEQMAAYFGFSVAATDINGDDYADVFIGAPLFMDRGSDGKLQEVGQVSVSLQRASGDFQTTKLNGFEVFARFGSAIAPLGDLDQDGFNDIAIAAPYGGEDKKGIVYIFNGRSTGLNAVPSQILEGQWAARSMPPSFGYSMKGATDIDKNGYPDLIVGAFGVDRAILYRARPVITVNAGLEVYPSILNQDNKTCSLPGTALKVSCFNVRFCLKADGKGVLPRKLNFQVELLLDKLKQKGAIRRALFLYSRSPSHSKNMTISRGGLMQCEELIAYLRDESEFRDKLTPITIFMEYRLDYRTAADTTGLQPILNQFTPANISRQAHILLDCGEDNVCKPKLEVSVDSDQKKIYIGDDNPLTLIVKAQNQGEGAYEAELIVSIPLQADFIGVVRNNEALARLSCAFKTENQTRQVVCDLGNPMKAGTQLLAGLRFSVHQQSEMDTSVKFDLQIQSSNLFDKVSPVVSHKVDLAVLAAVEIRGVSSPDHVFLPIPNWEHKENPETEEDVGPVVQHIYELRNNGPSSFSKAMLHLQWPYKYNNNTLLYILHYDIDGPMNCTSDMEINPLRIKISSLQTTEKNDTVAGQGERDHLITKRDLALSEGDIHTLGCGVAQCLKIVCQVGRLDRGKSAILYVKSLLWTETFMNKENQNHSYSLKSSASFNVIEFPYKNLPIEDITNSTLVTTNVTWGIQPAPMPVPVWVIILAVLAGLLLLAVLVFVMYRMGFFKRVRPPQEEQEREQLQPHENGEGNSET
T1 sequence (P05556 21-798 limits assumed, chain 2 of 2): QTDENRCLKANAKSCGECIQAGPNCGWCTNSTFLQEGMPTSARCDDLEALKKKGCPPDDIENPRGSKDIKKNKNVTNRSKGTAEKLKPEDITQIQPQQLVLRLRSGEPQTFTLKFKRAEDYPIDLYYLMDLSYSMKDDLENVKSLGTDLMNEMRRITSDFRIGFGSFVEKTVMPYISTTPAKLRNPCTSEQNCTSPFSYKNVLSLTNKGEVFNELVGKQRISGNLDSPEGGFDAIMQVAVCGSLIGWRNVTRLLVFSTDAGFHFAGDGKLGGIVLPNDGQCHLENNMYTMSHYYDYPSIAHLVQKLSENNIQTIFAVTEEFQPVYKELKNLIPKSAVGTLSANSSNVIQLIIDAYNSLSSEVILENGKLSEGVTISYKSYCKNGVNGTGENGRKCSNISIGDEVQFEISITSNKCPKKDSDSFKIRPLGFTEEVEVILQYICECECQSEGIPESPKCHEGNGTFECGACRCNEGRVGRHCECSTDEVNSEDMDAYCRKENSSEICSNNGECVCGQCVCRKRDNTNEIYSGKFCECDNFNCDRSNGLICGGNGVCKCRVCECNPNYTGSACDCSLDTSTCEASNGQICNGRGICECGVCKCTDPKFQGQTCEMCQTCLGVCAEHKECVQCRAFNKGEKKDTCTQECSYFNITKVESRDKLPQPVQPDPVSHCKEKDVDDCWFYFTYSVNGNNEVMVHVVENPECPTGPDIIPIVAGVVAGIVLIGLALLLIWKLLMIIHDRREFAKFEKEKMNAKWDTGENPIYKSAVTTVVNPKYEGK
integrin αvβ5 expressed on CHO cells, sequence (P06756 31-1048 limits assumed, chain 1 of 2): as the sequence (P06756 31-1048 limits assumed, chain 1 of 2) above
integrin αvβ5 expressed on CHO cells, sequence (P18084 24-799 limits assumed, chain 2 of 2): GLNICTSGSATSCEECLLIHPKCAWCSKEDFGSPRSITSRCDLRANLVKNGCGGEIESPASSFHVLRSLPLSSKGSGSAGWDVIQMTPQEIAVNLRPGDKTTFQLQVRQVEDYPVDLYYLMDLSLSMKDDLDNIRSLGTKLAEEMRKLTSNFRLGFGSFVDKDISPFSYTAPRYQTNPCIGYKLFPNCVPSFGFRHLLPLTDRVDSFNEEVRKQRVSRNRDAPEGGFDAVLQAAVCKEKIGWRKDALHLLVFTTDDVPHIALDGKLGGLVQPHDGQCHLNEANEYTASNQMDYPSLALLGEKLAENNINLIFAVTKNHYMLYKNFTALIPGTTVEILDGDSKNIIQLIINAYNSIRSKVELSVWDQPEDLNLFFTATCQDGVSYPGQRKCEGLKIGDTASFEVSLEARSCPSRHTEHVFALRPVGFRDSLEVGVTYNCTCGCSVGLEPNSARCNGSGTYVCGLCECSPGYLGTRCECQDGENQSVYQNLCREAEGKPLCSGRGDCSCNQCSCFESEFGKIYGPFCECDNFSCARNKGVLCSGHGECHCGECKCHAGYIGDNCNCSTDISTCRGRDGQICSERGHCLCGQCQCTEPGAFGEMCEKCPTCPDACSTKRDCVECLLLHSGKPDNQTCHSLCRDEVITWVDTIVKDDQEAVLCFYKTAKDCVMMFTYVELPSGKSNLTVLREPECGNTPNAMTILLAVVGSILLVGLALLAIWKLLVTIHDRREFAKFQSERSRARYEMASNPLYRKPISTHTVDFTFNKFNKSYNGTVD
integrin αvβ3 expressed on CHO cells, sequence (P06756 31-1048 limits assumed, chain 1 of 2): as the sequence (P06756 31-1048 limits assumed, chain 1 of 2) above
integrin αvβ3 expressed on CHO cells, sequence (P05106 27-788 limits assumed, chain 2 of 2): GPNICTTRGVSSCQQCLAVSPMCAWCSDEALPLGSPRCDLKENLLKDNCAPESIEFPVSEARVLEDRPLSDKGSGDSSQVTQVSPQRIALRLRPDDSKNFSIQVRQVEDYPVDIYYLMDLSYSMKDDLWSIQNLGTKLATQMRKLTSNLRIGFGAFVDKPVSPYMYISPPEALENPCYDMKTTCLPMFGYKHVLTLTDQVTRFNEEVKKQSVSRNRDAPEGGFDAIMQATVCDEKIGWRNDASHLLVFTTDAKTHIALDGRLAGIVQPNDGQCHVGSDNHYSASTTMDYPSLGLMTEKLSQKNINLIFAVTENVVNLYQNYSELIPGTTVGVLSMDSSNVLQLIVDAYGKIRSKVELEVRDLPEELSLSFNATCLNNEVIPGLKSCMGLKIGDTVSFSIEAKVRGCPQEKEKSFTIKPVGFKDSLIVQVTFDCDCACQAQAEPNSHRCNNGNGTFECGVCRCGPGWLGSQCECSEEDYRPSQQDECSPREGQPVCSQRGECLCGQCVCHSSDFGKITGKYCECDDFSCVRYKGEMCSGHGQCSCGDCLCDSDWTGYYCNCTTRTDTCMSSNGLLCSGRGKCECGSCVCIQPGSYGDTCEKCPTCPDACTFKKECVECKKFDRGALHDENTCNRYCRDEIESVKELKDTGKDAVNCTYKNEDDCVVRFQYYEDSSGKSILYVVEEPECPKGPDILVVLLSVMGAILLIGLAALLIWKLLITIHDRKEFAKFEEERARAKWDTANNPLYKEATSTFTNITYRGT
integrin αvβ8 expressed on CHO cells, sequence (P06756 31-1048 limits assumed, chain 1 of 2): as the sequence (P06756 31-1048 limits assumed, chain 1 of 2) above
integrin αvβ8 expressed on CHO cells, sequence (P26012 43-769 limits assumed, chain 2 of 2): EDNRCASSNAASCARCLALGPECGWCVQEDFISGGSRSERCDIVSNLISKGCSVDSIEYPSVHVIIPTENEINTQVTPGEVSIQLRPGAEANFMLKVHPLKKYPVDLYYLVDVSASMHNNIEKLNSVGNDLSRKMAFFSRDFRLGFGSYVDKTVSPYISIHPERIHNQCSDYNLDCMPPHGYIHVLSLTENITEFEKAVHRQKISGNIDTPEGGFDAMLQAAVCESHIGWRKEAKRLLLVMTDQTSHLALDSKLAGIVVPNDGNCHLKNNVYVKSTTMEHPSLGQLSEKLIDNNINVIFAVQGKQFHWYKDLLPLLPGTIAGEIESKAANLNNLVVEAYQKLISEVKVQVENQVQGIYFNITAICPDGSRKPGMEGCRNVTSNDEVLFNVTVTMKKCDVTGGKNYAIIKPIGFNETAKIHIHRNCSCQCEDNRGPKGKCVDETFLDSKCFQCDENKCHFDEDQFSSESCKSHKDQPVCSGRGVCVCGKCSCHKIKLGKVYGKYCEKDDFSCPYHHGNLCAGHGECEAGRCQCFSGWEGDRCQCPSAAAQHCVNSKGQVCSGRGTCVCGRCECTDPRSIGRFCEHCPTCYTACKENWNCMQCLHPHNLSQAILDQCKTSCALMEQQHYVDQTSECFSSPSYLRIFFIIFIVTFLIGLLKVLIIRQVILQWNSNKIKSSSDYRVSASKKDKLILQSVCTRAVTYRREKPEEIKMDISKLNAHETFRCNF

IC50, inhibition of integrin-αvβ1 CHO cell adhesion to LAP-TGFβ; no antibody named on the panel, binder taken from the context of FIG. 10 [1]: 0.00291 µM | IC50, inhibition of CHO cell adhesion to LAP-TGFβ [2]: 0.0242 µM | IC50, inhibition of CHO cell adhesion to LAP-TGFβ [3]: 0.00983 µM | IC50, inhibition of CHO cell adhesion to LAP-TGFβ [4]: 0.0551 µM | IC50, inhibition of CHO cell adhesion to LAP-TGFβ [5]: 0.0182 µM | EC50 [6]: 0.00239 µM | adhesion of integrin-αvβ1 CHO cells to LAP-TGFβ, normalised confluence, number over the bar, untreated = 100 [7]: 16.7%
B1: 10404/10392 (bispecific antibody, human IgG1, kappa)
heavy chain 10392, knob: EVQLVESGGGLVQPGGSLRLSCAASGFNIYYSSIHWVRQAPGKGLEWVASISSSSGSTSYADSVKGRFTISADTSKNTAYLQMNSLRAEDTAVYYCARSYYGGGYPYALDYWGQGTLVTVSSASTKGPSVFPLAPSSKSTSGGTAALGCLVKDYFPEPVTVSWNSGALTSGVHTFPAVLQSSGLYSLSSVVTVPSSSLGTQTYICNVNHKPSNTKVDKKVEPKSCDKTHTCPPCPAPELLGGPSVFLFPPKPKDTLMISRTPEVTCVVVDVSHEDPEVKFNWYVDGVEVHNAKTKPREEQYNSTYRVVSVLTVLHQDWLNGKEYKCKVSNKALPAPIEKTISKAKGQPREPMVFDLPPSREEMTKNQVSLWCMVKGFYPSDIAVEWESNGQPENNYKTTPPVLDSDGSFFLYSKLTVDKSRWQQGNVFSCSVMHEALHNHYTQKSLSLSPGK
heavy chain 10404, hole: EVQLVESGGGLVQPGGSLRLSCAASGFNLYSSSIHWVRQAPGKGLEWVAYIYPSYGYTSTYADSVKGRFTISADTSKNTAYLQMNSLRAEDTAVYYCARPAPYYSWYPAMDYWGQGTLVTVSSASTKGPSVFPLAPSSKSTSGGTAALGCLVKDYFPEPVTVSWNSGALTSGVHTFPAVLQSSGLYSLSSVVTVPSSSLGTQTYICNVNHKPSNTKVDKKVEPKSCDKTHTCPPCPAPELLGGPSVFLFPPKPKDTLMISRTPEVTCVVVDVSHEDPEVKFNWYVDGVEVHNAKTKPREEQYNSTYRVVSVLTVLHQDWLNGKEYKCKVSNKALPAPIEKTISKAKGQPREPQVYTLPPIRELMTSNQVSLSCAVKGFYPSDIAVEWESNGQPENNYKTTPPVLDSDGSFFLVSKLTVDKSRWQQGNVFSCSVMHEALHNHYTQKSLSLSPGK
light chain 10404: DIQMTQSPSSLSASVGDRVTITCRASQSVSSAVAWYQQKPGKAPKLLIYSASSLYSGVPSRFSGSRSGTDFTLTISSLQPEDFATYYCQQASGSPFTFGQGTKVEIKRTVAAPSVFIFPPSDEQLKSGTASVVCLLNNFYPREAKVQWKVDNALQSGNSQESVTEQDSKDSTYSLSSTLTLSKADYEKHKVYACEVTHQGLSSPVTKSFNRGEC
